Laboratory results: article PMC6821020, “Arabidopsis thaliana alternative dehydrogenases: a potential therapy for mitochondrial complex I deficiency? Perspectives and pitfalls” (Orphanet Journal of Rare Diseases, 2019)

Substrate: NC(=O)C1=CN([C@@H]2O[C@H](COP(=O)(O)OP(=O)(O)OC[C@H]3O[C@@H](n4cnc5c(N)ncnc54)[C@H](O)[C@@H]3O)[C@@H](O)[C@H]2O)C=CC1
Test: cells, lysate or membranes
Type: biochemical, Arabidopsis thaliana
Settings: rotenone-resistant activity in AtNDA2-transfected control fibroblasts, DCQ 50 μM, rotenone 8 μM, KCN 650 μM, 10 mM KH2PO4 pH 7.2, BSA, 37 °C

B1: AtNDA2 (Arabidopsis thaliana) (protein)
chain: SPAKIPNDVDRSQYSGLPPTREGEKPRVVVLGSGWAGCRLMKGIDTNLYDVVCVSPRNHMVFTPLLASTCVGTLEFRSVAEPISRIQPAISREPGSFFFLANCSRLDADAHEVHCETLTDGLNTLKPWKFKIAYDKLVIASGAEASTFGIHGVMENAIFLREVHHAQEIRRKLLLNLMLSDTPGISKEEKRRLLHCVVVGGGPTGVEFSGELSDFIMKDVRQRYAHVKDDIHVTLIEARDILSSFDDRLRRYAIKQLNKSGVRFVRGIVKDVQSQKLILDDGTEVPYGLLVWSTGVGPSPFVRSLGLPKDPTGRIGIDEWMRVPSVQDVFAIGDCSGYLETTGKPTLPALAQVAEREGKYLANLLNAIGKGNGGRANSAKEIELGVPFVYKHLGSMATIGRYKALVDLRESKDAKGISMTGFVSWFIWRSAYLTRVISWRNRFYVAINWFTTFVFGRDISRI
notes: lentiviral expression in human control fibroblasts (NHDF); permeabilised cells
Km: 9.7 ± 3.3 µM
